Measured values from the supplement of paper PMC9112550, “Optimization of the antimicrobial peptide Bac7 by deep mutational scanning” (BMC Biology, 2022).

System: Escherichia coli TOP10
Experiment: shrunken log2 fold change of peptide-encoding DNA abundance (4.5 h post-induction vs induction); higher = less antimicrobial activity (less host growth inhibition)
Settings: time post-induction: 4.5 h; library: site-saturation at positions 5, 18, 19, 20
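Also: peptides expressed intracellularly from a pBAD plasmid library in pooled LB shake-flask culture, induced with 0.3% L-arabinose, DNA abundance read by NGS, three biological replicates, DESeq2 with apeglm shrinkage.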

Sequence | shrunken log2 fold change
RRIRYRPPRLPRPRPRPVMQPRP | -0.315
RRIRARPPRLPRPRPRPWSWPRP | 0.109
RRIRWRPPRLPRPRPRPYTHPRP | -0.536
RRIRGRPPRLPRPRPRPKQFPRP | 0.566
RRIRLRPPRLPRPRPRPPCNPRP | -0.126
RRIRKRPPRLPRPRPRPYLVPRP | -0.634
RRIRFRPPRLPRPRPRPGQAPRP | 0.0631
RRIRHRPPRLPRPRPRPLNEPRP | -0.124
RRIRARPPRLPRPRPRPHEPPRP | 0.00298
RRIRLRPPRLPRPRPRPKIDPRP | -0.042
RRIRMRPPRLPRPRPRPMHIPRP | 0.0159
RRIRCRPPRLPRPRPRPKDKPRP | 0.401
RRIRTRPPRLPRPRPRPGMIPRP | -0.0261
RRIRTRPPRLPRPRPRPCGMPRP | -0.0074
RRIRKRPPRLPRPRPRPTRWPRP | 0.413
RRIRYRPPRLPRPRPRPVPMPRP | -0.158
RRIRPRPPRLPRPRPRPSEWPRP | 0.0522
RRIRGRPPRLPRPRPRPWELPRP | 0.136
RRIRFRPPRLPRPRPRPRMTPRP | 0.128
RRIRFRPPRLPRPRPRPVTVPRP | -0.264
RRIRLRPPRLPRPRPRPLVVPRP | -0.113
RRIRHRPPRLPRPRPRPSHPPRP | 0.0558
RRIRWRPPRLPRPRPRPMSAPRP | 0.338
RRIRSRPPRLPRPRPRPSDWPRP | 0.0164
RRIRNRPPRLPRPRPRPYMRPRP | -0.597

Sequence | shrunken log2 fold change
RRIRSRPPRLPRPRPRPRWRPRP | 0.375
RRIRPRPPRLPRPRPRPYTGPRP | -0.6
RRIRCRPPRLPRPRPRPSGMPRP | -0.35
RRIRFRPPRLPRPRPRPGLDPRP | -0.0186
RRIRYRPPRLPRPRPRPPAHPRP | 0.178
RRIRTRPPRLPRPRPRPEGIPRP | 0.0215
RRIRQRPPRLPRPRPRPKTPPRP | -0.0134
RRIRLRPPRLPRPRPRPLDFPRP | -0.162
RRIRSRPPRLPRPRPRPRPAPRP | 0.467
RRIRHRPPRLPRPRPRPYYFPRP | -0.178
RRIRVRPPRLPRPRPRPNEDPRP | -0.168
RRIRCRPPRLPRPRPRPHCYPRP | -0.135
RRIRLRPPRLPRPRPRPLFCPRP | -0.142
RRIRDRPPRLPRPRPRPACDPRP | 0.472
RRIRFRPPRLPRPRPRPVCLPRP | -0.121
RRIRRRPPRLPRPRPRPDSYPRP | -0.117
RRIRARPPRLPRPRPRPYNVPRP | -0.284
RRIRNRPPRLPRPRPRPHRAPRP | 0.264
RRIRYRPPRLPRPRPRPQNDPRP | -1.63
RRIRWRPPRLPRPRPRPYLDPRP | -0.33
RRIRMRPPRLPRPRPRPEMYPRP | 0.216
RRIRQRPPRLPRPRPRPFMGPRP | -0.0627
RRIRKRPPRLPRPRPRPIEMPRP | -0.202
RRIRARPPRLPRPRPRPQKQPRP | -0.00111
RRIRLRPPRLPRPRPRPFMWPRP | -0.121

Sequence | shrunken log2 fold change
RRIRCRPPRLPRPRPRPVNVPRP | -0.249
RRIRWRPPRLPRPRPRPPAVPRP | 0.698
RRIRDRPPRLPRPRPRPIHWPRP | -0.18
RRIRKRPPRLPRPRPRPYMCPRP | -0.0998
RRIRQRPPRLPRPRPRPSTGPRP | -0.0811
RRIRARPPRLPRPRPRPCWIPRP | -0.197
RRIRHRPPRLPRPRPRPGINPRP | -0.422
RRIRGRPPRLPRPRPRPSITPRP | 0.0975
RRIRKRPPRLPRPRPRPWIRPRP | -0.336
RRIRRRPPRLPRPRPRPACQPRP | 0.835
RRIRPRPPRLPRPRPRPWERPRP | 0.0097
RRIRQRPPRLPRPRPRPIMTPRP | -0.107
RRIRYRPPRLPRPRPRPLGDPRP | -0.079
RRIRWRPPRLPRPRPRPWAVPRP | 0.0624
RRIRMRPPRLPRPRPRPGCQPRP | 0.719
RRIRARPPRLPRPRPRPVMEPRP | 1.04
RRIRPRPPRLPRPRPRPMTGPRP | -0.239
RRIRVRPPRLPRPRPRPSCTPRP | -0.175
RRIRERPPRLPRPRPRPRMSPRP | -0.254
RRIRWRPPRLPRPRPRPSQYPRP | -0.41
RRIRVRPPRLPRPRPRPGQYPRP | -0.113
RRIRNRPPRLPRPRPRPIGAPRP | 0.235
RRIRWRPPRLPRPRPRPNYKPRP | -0.552
RRIRLRPPRLPRPRPRPAFQPRP | 0.108
RRIRERPPRLPRPRPRPCDCPRP | 0.00557
